± gives the standard deviation of the averaged measurements.
System: ATP
Assay: switch fluorescence ratio, 500 uM ATP over buffer (Cy3 cluster intensity, sum of 5 cycles each) (fold (ratio)); higher = stronger signal-on switching upon ATP binding; sequences stand for … in TCGTCGGCAGCGTCAGATGTGTATAAGAGACAGTTTTTTTTTTTTTTTTTTTTTTTTT…TC
Conditions: aptamer strand: ATP DNA aptamer (quencher-CACCTGGGGGAGTATTGCGGAGGAAGG + anchor), 100 nM annealed; ATP concentration: 500 uM
Procedure, shortened: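 Cy3-labelled switching-strand clusters on a modified Illumina MiSeq flow-cell were annealed to 100 nM quencher-labelled ATP aptamer and imaged first in selection buffer, then after 15 min with 500 uM ATP at 22 °C. NaOH stripping and re-annealing separated each of five buffer/ATP cycles, and clusters outside 100-1000 RFU were excluded. The fluorescence ratio sums target-cycle Cy3 intensity over buffer-cycle Cy3 intensity per cluster and averages it per switch-domain sequence.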
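Note: ATP exposure 15 min at 22 °C before imaging.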

Sequence | switch fluorescence ratio
GAAGGTTGAG | 1.025 ± 0.009
GAAGGTTTGG | 0.981 ± 0.03
GAAGTAAAAA | 1.01 ± 0.026
GAAGTAAGGA | 1.01 ± 0.074
GAAGTAATAG | 4.39 ± 0.18
GAAGTAGAAA | 0.9958 ± 0.0016
GAAGTAGGGG | 0.977 ± 0.033
GAAGTAGTTA | 1.006 ± 0.0082
GAAGTCCATG | 1.01 ± 0.014
GAAGTGAGCG | 1.028 ± 0.0063
GAAGTGTTGG | 1.004 ± 0.0049
GAAGTTAGGG | 0.981 ± 0.032
GAAGTTCGGC | 1.006 ± 0.0056
GAAGTTGCGA | 0.9835 ± 0.0091
GAAGTTTTGG | 0.996 ± 0.028
GAAGTTTTGT | 1.016 ± 0.0088
GAATACGGTT | 1.26 ± 0.44
GAATAGCATA | 1.05 ± 0.018
GAATAGGGGA | 1.02 ± 0.022
GAATATACCG | 1.03 ± 0.042
GAATATACTG | 1.05 ± 0.029
GAATATATTT | 0.993 ± 0.019
GAATCACAGC | 1.02 ± 0.033
GAATCGGCGT | 0.991 ± 0.058
GAATCGTAGG | 0.986 ± 0.016

Sequence | switch fluorescence ratio
GAATCTAGTG | 1.019 ± 0.0039
GAATCTTAGG | 1.03 ± 0.024
GAATGATGGG | 0.987 ± 0.024
GAATGCCGGG | 1.03 ± 0.054
GAATGCCTGT | 1.033 ± 0.0065
GAATGGCACA | 0.998 ± 0.016
GAATGGGGAA | 1.02 ± 0.021
GAATGGGGCT | 0.987 ± 0.037
GAATGGGGGA | 1.02 ± 0.019
GAATGGGTCG | 0.989 ± 0.033
GAATGGGTTG | 1.01 ± 0.028
GAATGTAGCA | 1.03 ± 0.011
GAATGTAGGG | 0.967 ± 0.046
GAATGTCCGT | 0.992 ± 0.015
GAATGTGCAT | 1.05 ± 0.047
GAATGTGGGG | 0.982 ± 0.019
GAATGTTCGG | 0.999 ± 0.051
GAATGTTCTT | 1.0298 ± 6.1e-05
GAATTAAACG | 1.02 ± 0.024
GAATTAAATG | 1.037 ± 0.0019
GAATTAGGTG | 1.21 ± 0.029
GAATTATATT | 0.988 ± 0.021
GAATTCAGGG | 0.99 ± 0.014
GAATTCAGTG | 0.9953 ± 0.0096
GAATTGAGAA | 0.972 ± 0.035

Sequence | switch fluorescence ratio
GAATTGGAAG | 0.968 ± 0.025
GAATTGTATT | 0.993 ± 0.06
GAATTTAGCA | 1.02 ± 0.031
GAATTTGAGT | 0.9741 ± 0.0089
GAATTTGTTG | 1.001 ± 0.0063
GAATTTTCGC | 0.995 ± 0.029
GAATTTTGGG | 1 ± 0.032
GACAACGTA | 0.9967 ± 0.0095
GACAATTTCT | 1.02 ± 0.072
GACACACCCG | 1.13 ± 0.046
GACACCATCC | 1.55 ± 0.18
GACACGAGGT | 1.013 ± 0.0084
GACACGGGGA | 1.01 ± 0.041
GACAGACGGG | 1.13 ± 0.049
GACAGAGGTG | 1.03 ± 0.031
GACAGCAGGG | 1.03 ± 0.025
GACAGGGGGA | 1.035 ± 0.0072
GACAGGTGAG | 1.15 ± 0.058
GACAGTCTCA | 1.02 ± 0.021
GACAGTGGTA | 0.973 ± 0.013
GACAGTTTGT | 1.01 ± 0.033
GACATAAATG | 1.03 ± 0.12
GACATAGACC | 1.048 ± 0.0075
GACATTTTGC | 1.05 ± 0.028
GACCAAAGGG | 1.03 ± 0.058

Sequence | switch fluorescence ratio
GACCAAATTT | 1.02 ± 0.064
GACCACAGCG | 1.02 ± 0.029
GACCAGGTTA | 1.181 ± 0.0052
GACCATGGCA | 1.01 ± 0.045
GACCCTGATC | 1.17 ± 0.058
GACCGATTTT | 0.989 ± 0.015
GACCGGGTAA | 1.02 ± 0.033
GACCGTTGGA | 0.987 ± 0.037
GACCGTTTGA | 1.03 ± 0.03
GACCTAAGGT | 0.988 ± 0.035
GACCTCACAT | 1.18 ± 0.022
GACCTGTAAT | 1.025 ± 0.0013
GACCTGTTTT | 0.987 ± 0.063
GACCTTGATT | 1.03 ± 0.029
GACCTTGTGC | 1.03 ± 0.042
GACGAATGGG | 0.985 ± 0.015
GACGACGTTA | 1.55 ± 0.026
GACGAGATAG | 1.17 ± 0.076
GACGAGCGGG | 1 ± 0.025
GACGAGGG | 1.03 ± 0.038
GACGATACGT | 1.14 ± 0.038
GACGATCCTG | 1.08 ± 0.043
GACGATGACG | 0.987 ± 0.014
GACGCACTAA | 2.76 ± 0.44
GACGCAGGTG | 2.5 ± 0.24

Sequence | switch fluorescence ratio
GACGCGCGTA | 1.01 ± 0.027
GACGCTGTGC | 3.6 ± 0.41
GACGGAGGGG | 1.01 ± 0.027
GACGGATTTA | 0.988 ± 0.035
GACGGCGCTG | 0.957 ± 0.049
GACGGCTCAG | 1 ± 0.015
GACGGGGAGA | 1.06 ± 0.038
GACGGGGTGT | 1.059 ± 0.0039
GACGGGTGAG | 0.9917 ± 0.0087
GACGGGTGGC | 1.11 ± 0.02
GACGGGTTTC | 0.991 ± 0.017
GACGTAAAAG | 1.097 ± 0.0096
GACGTAAATA | 1.75 ± 0.18
GACGTAACGG | 1.082 ± 0.0014
GACGTAAGTT | 1.02 ± 0.018
GACGTGGAAG | 1.01 ± 0.024
GACGTGTGTC | 0.983 ± 0.023
GACGTTATTG | 1.03 ± 0.013
GACGTTCATA | 1.083 ± 0.0089
GACGTTGAGG | 0.983 ± 0.023
GACGTTGCTA | 1.06 ± 0.019
GACGTTTCAG | 0.95 ± 0.02
GACGTTTGGG | 0.982 ± 0.022
GACGTTTTAG | 0.993 ± 0.052
GACGTTTTTA | 1.01 ± 0.046

Sequence | switch fluorescence ratio
GACTAAGTTT | 1.018 ± 0.0076
GACTAATGAT | 1.02 ± 0.024
GACTAATTGG | 0.957 ± 0.013
GACTACATTA | 1.03 ± 0.025
GACTACGGCC | 1.049 ± 0.0065
GACTAGGCGG | 1.12 ± 0.2
GACTAGTATA | 1.01 ± 0.04
GACTATTAGC | 0.984 ± 0.028
GACTCAGAGG | 1.03 ± 0.011
GACTCCTGAG | 0.98 ± 0.033
GACTGACTGG | 0.996 ± 0.018
GACTGGAGGA | 0.9851 ± 0.008
GACTGGGGCA | 1.017 ± 0.0053
GACTGGTTGC | 1 ± 0.053
GACTGTCGGC | 1.02 ± 0.024
GACTGTTAGG | 1.03 ± 0.016
GACTTAGGAC | 1.02 ± 0.021
GACTTAGGTA | 0.975 ± 0.027
GACTTATCCT | 1.054 ± 0.004
GACTTCCAGG | 1.05 ± 0.026
GACTTCTTAG | 0.9573 ± 0.0041
GACTTTAAGC | 1.01 ± 0.032
GACTTTACTG | 1.06 ± 0.049
GACTTTTAGG | 1.01 ± 0.027
GACTTTTATA | 0.996 ± 0.026

Sequence | switch fluorescence ratio
GAGAAAACCG | 1.06 ± 0.092
GAGAAAATTT | 0.989 ± 0.043
GAGAAAGGGG | 1.06 ± 0.14
GAGAAAGGTG | 1.09 ± 0.022
GAGAAAGTGG | 0.9924 ± 0.001
GAGAAATTGG | 1 ± 0.022
GAGAAGGGAG | 0.9895 ± 0.0055
GAGAATCGGT | 1.03 ± 0.078
GAGAATGGCA | 0.964 ± 0.028
GAGAATTGGG | 1.02 ± 0.061
GAGACAGTTA | 0.992 ± 0.014
GAGACCCGTG | 0.9867 ± 0.0059
GAGACGTTTG | 1.02 ± 0.054
GAGACTAGGT | 1.04 ± 0.025
GAGACTGGTT | 1.03 ± 0.034
GAGAGAAAAT | 1.49 ± 0.63
GAGAGAGGTG | 1.0377 ± 0.00093
GAGAGATAGT | 1.03 ± 0.015
GAGAGGGTAT | 0.966 ± 0.012
GAGAGGGTTG | 0.971 ± 0.033
GAGAGTATGT | 0.998 ± 0.043
GAGAGTCCTT | 0.997 ± 0.015
GAGAGTCTAG | 0.989 ± 0.015
GAGAGTTTTC | 0.985 ± 0.037
GAGATACTCT | 1.03 ± 0.012

Sequence | switch fluorescence ratio
GAGATAGTAG | 1 ± 0.015
GAGATCATTG | 1.07 ± 0.057
GAGATGGCAT | 0.987 ± 0.04
GAGATGGGGA | 0.991 ± 0.022
GAGATGGGTA | 0.997 ± 0.027
GAGATTAGGT | 0.977 ± 0.015
GAGATTGCGG | 0.9849 ± 0.0012
GAGATTTGAC | 1.01 ± 0.025
GAGCAATATA | 5.13 ± 1.7
GAGCAATGTG | 1.22 ± 0.3
GAGCAGTGCA | 1.03 ± 0.037
GAGCATTCCG | 1.003 ± 0.0051
GAGCCGGAGC | 0.993 ± 0.012
GAGCGACCTG | 0.989 ± 0.016
GAGCGAGGAA | 0.98171 ± 0.00093
GAGCGAGGGA | 1.14 ± 0.052
GAGCGCGAGG | 0.99 ± 0.037
GAGCGTAACG | 0.9999 ± 0.0027
GAGCGTGGGA | 1.11 ± 0.081
GAGCTACTGA | 1.011 ± 0.0085
GAGCTATCAC | 1.16 ± 0.035
GAGCTATGTG | 1.03 ± 0.0011
GAGCTGGTGG | 0.96 ± 0.019
GAGCTTACGG | 1.064 ± 0.01
GAGCTTCTTG | 1.017 ± 0.0063

From the supplement of paper PMC10126150
